In patent US10208121B2, “Anti-Axl antagonistic antibodies” (BERGEN TEKNOLOGIOVERFORING AS, priority 2014, dated 2019):

Legend:
[1] = system: MDA-MB-231; test: Growth of MDA-MB-231 cells in three-dimensional (3D) organotypic model; type: cell-based, human; settings: for growth and tumour mass development in extracellular matrix: MDA-MB-231, 50-100 μg/mL, day 6, versus control irrelevant IgG
Protocol: A highly aggressive triple-negative human breast cancer cell line MDA-MB-231 (ATCC® HTB-26™) was cultured according to recommended conditions in Dulbecco's Modified Eagle's Medium/Nutrient Mixture F-12 Ham medium supplemented with 10% foetal bovine serum (FBS), glutamine and penicillin and streptomycin. The cells were pre-treated in suspension for at least 1 hour at 37° C., to ensure proper binding of antibodies on the cell surface before they were placed in extracellular matrix. The cells cultures were observed every day and fresh treatments were done every other day. The antibodies were used at concentrations 50-100 μg/mL. Imaging of coverslip 3D assay (35 mm dish) was done on a NIKON light microscopy using both Phase contrast and Hoffman optics. Already at day 3, difference in growth of cells treated with either MAb 10C9 or MAb10G5 and cells treated with a control irrelevant IgG was observed.

[2] = molecular target: T1, Axl receptor protein (Homo sapiens, UniProt P30530); test: Western blot analysis of Axl receptor protein expression after antibody treatment; type: cell-based; settings: MDA-MB-231 cells, 100 μg/mL, 20 hrs, versus irrelevant IgG or MAb#3
T1 construct: endogenous in cells; host or cells: MDA-MB-231
Protocol: Western blot analysis illustrating effect of treatment with either antibodies of multikinase inhibitor Foretinib on Axl receptor expression. Highly aggressive human mammary carcinoma cells MDA-MB-231 were treated with either antibodies (irrelevant IgG control and anti-Axl MAbs 10C9, 10G5 and MAb#3) or Foretinib for […] before loading on SDS-PAA gel. The levels of actin protein were used as loading controls.
The expression of Axl receptor protein in MBA-MD-231 cells treated with different antibodies was examined by Western blot analysis. The cells were seeded in a 6-well plate at density of 5×10^5 cells per well and cultured overnight before treatment initiation. The cells were treated for 20 hrs in the presence of isotype control (mouse IgG2b), anti-Axl antibodies (10C9, 10G5 and MAb#3) at concentrations of 100 μg/mL or multikinase inhibitor Foretinib (targets Met, Ron, Axl, Tie-2, and VEGFR2) at a concentration of 0.5 μM followed by harvesting by centrifugation at 1,200 rpm for 5 min and washing with sterile PBS. The cells were collected by centrifugation and resuspended in NP40-lysis buffer followed by 30 min incubation on ice. The cell lysates were cleared by centrifugation (12,000 rpm, 4° C., 5 min) and the protein concentrations were determined using BCA protein assay. […]

[3] = system: A549 tumours; test: A549 NSCLC xenograft in nude mice; type: in vivo, mouse
Protocol: (§1) Inhibition of A549 xenograft tumour growth by chimeric antibody 10G5. The antibody was administrated intraperitoneally at 20 mg/kg, twice a week, starting when the mean tumour size reached 100 mm^3. Tumour growth curves for the groups treated with either vehicle (sterile PBS) or chimeric 10G5 are shown. Error bars represent standard error of the mean (SEM). Statistical analysis was performed using two-way ANOVA. **, P<0.01.
To evaluate the anti-tumour activity of anti-Axl chimeric antibodies in vivo, we used a mouse xenograft model of human non-small cell lung cancer (NSCLC). The human NSCLC A549 cells (ATCC #CCL-185) A549 cells were propagated in vitro as a monolayer culture in DMEM medium supplemented with 10% FBS, 2 mM L-Glutamine, 100 U/ml penicillin and 100 μg/ml streptomycin, 0.01M HEPES buffer, 0.45% D-(+)-glucose, 1 mM sodium pyruvate. Nude mice were implanted subcutaneously (s.c.) into the flank with 5×10^6 A549 cells resuspended in serum-free medium/Matrigel (1:1). When the tumour size reached 100 mm^3 (Day 0 in FIG. 14), the animals were randomized and treated with either vehicle (sterile PBS) or anti-Axl chimeric antibody 10G5 at 20 mg/kg, by intraperitoneal (i.p.) injections twice weekly for 4 weeks.

[4] = system: Mv4-11 tumours; test: Mv4-11 AML xenograft in nude mice; type: in vivo, mouse
Protocol: as §1, with “Mv4-11” for “A549”, “by the” for “by”, “30” for “20”, “200” for “100”, “ANOVA. *, P<0.05;” for “ANOVA.”, “P<0.01; ****, P<0.0001.” for “P<0.01.”
To evaluate the anti-tumour activity of anti-Axl chimeric antibodies in a model of haematological cancer, we used a mouse xenograft model of human acute myeloid leukaemia (AML). The human AML Mv4-11 cells (ATCC # CRL-9591) cells were propagated in suspension in IMDM medium supplemented with 10% FBS, 2 mM L-Glutamine, 100 U/ml penicillin and 100 μg/ml streptomycin. Nude mice were implanted s.c. into the flank with 5×10^6 Mv4-11 cells resuspended in the mixture of serum-free IMDM medium and Matrigel (1:1). When the tumour size reached 200 mm^3 (Day 0 in FIG. 15), the animals were randomized and treated with either vehicle (sterile PBS) or anti-Axl chimeric antibody 10G5 at 30 mg/kg, by i.p. injections twice weekly for 4 weeks.

Molecule	growth and tumour mass development in extracellular matrix [1]	Axl protein level (Western blot) [2]	viability of treated cells (nuclei staining) ([1]; MDA-MB-231 3D culture)	growth of A549 tumours compared with the control ([3]; 20 mg/kg i.p. twice weekly for 4 weeks, P<0.01, two-way ANOVA)	inhibition of tumour growth ([3]; 20 mg/kg i.p. twice weekly, after four weeks of treatment, versus vehicle (PBS))	growth of Mv4-11 tumours compared with the control ([4]; 30 mg/kg i.p. twice weekly for 4 weeks, P<0.0001, two-way ANOVA)	inhibition of tumour growth ([4]; 30 mg/kg i.p. twice weekly, after three weeks of treatment, versus vehicle (PBS))
10C9: mouse anti-Axl monoclonal antibody from hybridoma UT-10C9-B9, IgG2b; VH SEQ ID NO: 3, VL SEQ ID NO: 4 (antibody, listed as Mus musculus, V domains shown) VH: QVQLQQPGPELVKPGASVKISCKTSDYNFTRYYIHWVKQRPGQGLEWIGWIYPGTGDSKYNEKFKGRATLTADTSSSTAYMQLSSQTSEDSAVYFCARNGNYWYFDVWGAGTAVTVSS VL: DIVMTQAAPSGPVTPGESVSISCRSSKSLLHSNGNTYLYWFLQRPGQSPQLLIYRMSNLASGVPDRFSGSGSGTAFTLRISRVEAEDVGIYYCMQHREYPFTFGGGTKLEIK	significantly inhibited growth and tumour mass development	significant reduction in the amount of Axl receptor protein	–	–	–	–	–
10G5: mouse anti-Axl monoclonal antibody from hybridoma WR-10G5-E5, IgG1; VH SEQ ID NO: 21, VL SEQ ID NO: 22 (antibody, listed as Mus musculus, V domains shown) VH: QVQLQQSGAELVRPGASVKLSCKASGYSFTDFYINWVRQRPGQGLEWIARIFPGGDNTYYNEKFKGKATLTAEESSSTAYIQLSSLTSEDSAVYFCARRGLYYAMDYWGQGISVTVSS VL: DVLMTQTPLSLPVSLGDQASISCRSSQSLVHSNGIPYLHWYLQKPGQSPKLLIYRVSNRFSGVPDRFSGSGSGTDFTLKISRVEAEDLGVYFCSQGTHVPPTFGGGTKLEIK	significantly inhibited growth and tumour mass development	significant reduction of Axl protein	still viable	–	–	–	–
c10G5: chimeric (mouse variable/human constant) IgG1 variant of antibody 10G5 (antibody, left off: a dimerising Fc or GST, chimeric (mouse variable/human constant) IgG1 variant of antibody 10G5) heavy: QVQLQQSGAELVRPGASVKLSCKASGYSFTDFYINWVRQRPGQGLEWIARIFPGGDNTYYNEKFKGKATLTAEESSSTAYIQLSSLTSEDSAVYFCARRGLYYAMDYWGQGISVTVSS light: DVLMTQTPLSLPVSLGDQASISCRSSQSLVHSNGIPYLHWYLQKPGQSPKLLIYRVSNRFSGVPDRFSGSGSGTDFTLKISRVEAEDLGVYFCSQGTHVPPTFGGGTKLEIK	–	–	–	significantly attenuated growth of A549 tumours	around 40%	extremely significantly attenuated growth of Mv4-11 tumours	around 75%
